Measured values published in paper PMC9474812, “Structure of the membrane-bound formate hydrogenlyase complex from Escherichia coli” (Nature Communications, 2022).

T1: formate dehydrogenase H (FdhF) (Escherichia coli, UniProt P07658 1-715, metal-coordinating selenocysteine (Sec); position not given)
T1 construct: Formate dehydrogenase H, FdhF, subunit of the E. coli formate hydrogenlyase (FHL) complex; carries Mo(MGD)2 and [4Fe4S] cluster A1; Native subunit, not tagged; also called formate dehydrogenase subunit FdhF; source: endogenous, E. coli strain MG059e1, anaerobic fermentation; co-purified with His10-HycE from LMNG-solubilised membranes (HisTrap, SEC)
T1 sequence (looked up): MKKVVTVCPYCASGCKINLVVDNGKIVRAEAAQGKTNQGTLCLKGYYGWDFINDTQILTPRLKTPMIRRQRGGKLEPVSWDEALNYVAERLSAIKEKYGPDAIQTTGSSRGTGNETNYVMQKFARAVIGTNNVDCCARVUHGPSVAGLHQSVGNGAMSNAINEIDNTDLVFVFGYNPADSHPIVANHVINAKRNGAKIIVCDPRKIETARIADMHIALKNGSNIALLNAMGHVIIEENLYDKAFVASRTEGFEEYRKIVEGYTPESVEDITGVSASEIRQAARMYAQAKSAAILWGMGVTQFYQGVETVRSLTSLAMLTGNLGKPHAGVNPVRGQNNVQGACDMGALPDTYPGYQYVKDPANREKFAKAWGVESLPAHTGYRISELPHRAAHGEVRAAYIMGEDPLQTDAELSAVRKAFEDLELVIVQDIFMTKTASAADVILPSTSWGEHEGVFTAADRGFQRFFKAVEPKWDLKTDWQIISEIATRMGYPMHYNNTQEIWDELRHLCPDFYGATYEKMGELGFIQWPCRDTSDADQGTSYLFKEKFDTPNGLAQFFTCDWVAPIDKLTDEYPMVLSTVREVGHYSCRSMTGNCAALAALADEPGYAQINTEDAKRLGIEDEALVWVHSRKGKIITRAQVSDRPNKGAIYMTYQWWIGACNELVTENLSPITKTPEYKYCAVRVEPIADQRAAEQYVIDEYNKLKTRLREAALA

T2: HycC (Escherichia coli, UniProt P16429 1-608)
T2 construct: Native subunit from the hycABCDEFGHI operon, not tagged; also called antiporter-like subunit HycC; source: endogenous, E. coli strain MG059e1, anaerobic fermentation; co-purified with His10-HycE from LMNG-solubilised membranes (HisTrap, SEC)
T2 sequence (looked up): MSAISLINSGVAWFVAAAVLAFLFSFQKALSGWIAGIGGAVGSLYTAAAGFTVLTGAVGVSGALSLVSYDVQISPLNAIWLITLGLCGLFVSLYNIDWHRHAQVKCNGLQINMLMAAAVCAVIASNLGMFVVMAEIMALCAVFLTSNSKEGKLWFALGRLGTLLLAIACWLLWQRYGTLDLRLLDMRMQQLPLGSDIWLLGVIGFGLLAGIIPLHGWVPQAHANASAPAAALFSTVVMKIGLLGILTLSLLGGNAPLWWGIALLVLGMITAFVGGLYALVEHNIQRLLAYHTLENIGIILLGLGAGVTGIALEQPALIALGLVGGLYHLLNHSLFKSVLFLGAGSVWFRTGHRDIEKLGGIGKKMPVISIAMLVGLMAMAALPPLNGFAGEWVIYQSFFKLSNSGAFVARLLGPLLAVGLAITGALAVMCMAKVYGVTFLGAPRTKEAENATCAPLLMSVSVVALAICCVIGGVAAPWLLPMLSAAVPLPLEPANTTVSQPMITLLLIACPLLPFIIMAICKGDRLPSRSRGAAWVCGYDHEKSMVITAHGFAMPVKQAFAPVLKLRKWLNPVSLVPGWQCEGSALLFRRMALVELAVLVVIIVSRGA

B1: HycB (natural protein, Escherichia coli, UniProt P0AAK1 1-203, looked up)
chain: MNRFVIADSTLCIGCHTCEAACSETHRQHGLQSMPRLRVMLNEKESAPQLCHHCEDAPCAVVCPVNAITRVDGAVQLNESLCVSCKLCGIACPFGAIEFSGSRPLDIPANANTPKAPPAPPAPARVSTLLDWVPGIRAIAVKCDLCSFDEQGPACVRMCPTKALHLVDNTDIARVSKRKRELTFNTDFGDLTLFQQAQSGEAK
notes: HycB, ferredoxin-like subunit of the E. coli formate hydrogenlyase (FHL) complex; coordinates [4Fe4S] clusters B1-B4; Native subunit from the hycABCDEFGHI operon, not tagged; also called ferredoxin-like protein HycB; source: endogenous, E. coli strain MG059e1, anaerobic fermentation; co-purified with His10-HycE from LMNG-solubilised membranes (HisTrap, SEC)
B2: HycE, the large hydrogenase subunit of FHL, with an internal 10x His affinity tag (enzyme, Escherichia coli, UniProt P16431 1-537, looked up)
chain: MSEEKLGQHYLAALNEAFPGVVLDHAWQTKDQLTVTVKVNYLPEVVEFLYYKQGGWLSVLFGNDERKLNGHYAVYYVLSMEKGTKCWITVRVEVDANKPEYPSVTPRVPAAVWGEREVRDMYGLIPVGLPDERRLVLPDDWPDELYPLRKDSMDYRQRPAPTTDAETYEFINELGDKKNNVVPIGPLHVTSDEPGHFRLFVDGENIIDADYRLFYVHRGMEKLAETRMGYNEVTFLSDRVCGICGFAHSTAYTTSVENAMGIQVPERAQMIRAILLEVERLHSHLLNLGLACHFTGFDSGFMQFFRVRETSMKMAEILTGARKTYGLNLIGGIRRDLLKDDMIQTRQLAQQMRREVQELVDVLLSTPNMEQRTVGIGRLDPEIARDFSNVGPMVRASGHARDTRADHPFVGYGLLPMEVHSEQGCDVISRLKVRINEVYTALNMIDYGLDNLPGGPLMVEGFTYIPHRFALGFAEAPRGDDIHWSMTGDNQKLYRWRCRAATYANWPTLRYMLRGNTVSDAPLIIGSLDPCYSCTDR
notes: HycE, large [NiFe] hydrogenase subunit of the E. coli formate hydrogenlyase (FHL) complex; His10 tag placed after Gly-83; also called [NiFe] hydrogenase HycE; Hyd-3 large subunit; source: purified from LMNG-solubilised membranes (HisTrap, SEC); not shown: His10, internal (after residue 83), kept
B3: HycD (natural protein, Escherichia coli, UniProt P16430 1-307, looked up)
chain: MSVLYPLIQALVLFAVAPLLSGITRVARARLHNRRGPGVLQEYRDIIKLLGRQSVGPDASGWVFRLTPYVMVGVMLTIATALPVVTVGSPLPQLGDLITLLYLFAIARFFFAISGLDTGSPFTAIGASREAMLGVLVEPMLLLGLWVAAQVAGSTNISNITDTVYHWPLSQSIPLVLALCACAFATFIEMGKLPFDLAEAEQELQEGPLSEYSGSGFGVMKWGISLKQLVVLQMFVGVFIPWGQMETFTAGGLLLALVIAIVKLVVGVLVIALFENSMARLRLDITPRITWAGFGFAFLAFVSLLAA
notes: HycD, integral membrane subunit (ND1 homolog) of the E. coli formate hydrogenlyase (FHL) complex, eight TMHs; Native subunit from the hycABCDEFGHI operon, not tagged; also called membrane-anchor subunit HycD (ND1 homolog); source: endogenous, E. coli strain MG059e1, anaerobic fermentation; co-purified with His10-HycE from LMNG-solubilised membranes (HisTrap, SEC)
B4: HycF (natural protein, Escherichia coli, UniProt P16432 1-180, looked up)
chain: MFTFIKKVIKTGTATSSYPLEPIAVDKNFRGKPEQNPQQCIGCAACVNACPSNALTVETDLATGELAWEFNLGHCIFCGRCEEVCPTAAIKLSQEYELAVWKKEDFLQQSRFALCNCRVCNRPFAVQKEIDYAIALLKHNGDSRAENHRESFETCPECKRQKCLVPSDRIELTRHMKEAI
notes: HycF, ferredoxin-like subunit (NDUFS8 homolog) of the E. coli formate hydrogenlyase (FHL) complex; coordinates [4Fe4S] clusters F1, F2 and a metal ion at Cys117, Cys120, Cys155, Cys158; Native subunit from the hycABCDEFGHI operon, not tagged; also called ferredoxin-like protein HycF; source: endogenous, E. coli strain MG059e1, anaerobic fermentation; co-purified with His10-HycE from …

What was measured:
[1] = biological target: B2; assay: co-purification (His-tag affinity, then SEC); anaerobic isolation: as the aerobic one but in an anaerobic chamber (<1 ppm O2, 3-4% hydrogen in nitrogen), anaerobic buffers, lysis by sonication (also bead-beating or B-PER); details: partners not purified
[2] = biological target: T1, formate dehydrogenase H (FdhF); assay: cryo-EM structure; aerobically isolated FHL (heptameric FdhF-HycBCDEFG) in LMNG, single-particle analysis, 3.4 Å (focused refinements 3.0-3.4 Å); details: both partners purified
HycC [3] = biological target: T2, HycC; assay: co-purification (His-tag affinity, then SEC); aerobic isolation: membranes solubilised with 0.5% LMNG, HisTrap FF by the His10 tag in HycE, Superdex 200 Increase; 20 mM Tris, 200 mM NaCl, 1 mM DTT, 0.005% LMNG, pH 7.5; details: partners not purified
HycC [4] = biological target: T2, HycC; assay: cryo-EM structure; anaerobically isolated FHL (hexameric HycBCDEFG) in LMNG, grids prepared in the anaerobic chamber with fluorinated fos-choline-8, 2.6 Å; details: both partners purified
[5] = biological target: B2; assay: co-purification (His-tag affinity, then SEC); aerobic isolation: membranes solubilised with 0.5% LMNG, HisTrap FF by the His10 tag in HycE, Superdex 200 Increase; 20 mM Tris, 200 mM NaCl, 1 mM DTT, 0.005% LMNG, pH 7.5; details: partners not purified
HycB = biological target: B1; assay: cryo-EM structure; anaerobically isolated FHL (hexameric HycBCDEFG) in LMNG, grids prepared in the anaerobic chamber with fluorinated fos-choline-8, 2.6 Å; details: both partners purified

B1
binding result [1]: binds | binding result [2]: binds

B2
binding result (HycC [3]): binds

B3
binding result (HycC [4]): binds | binding result [5]: binds

B4
binding result (HycB): binds | binding result [2]: binds
